Experimental findings from US20100297131A1 are described below.

For experiment [1], the target named is human erythrocytes, untreated (uncharacterized neuraminidase sensitive, trypsin resistant receptor on the surface of the erythrocyte) (human). Kind of experiment: erythrocyte rosetting on transfected COS7 cells, normalized to 5% transfection efficiency.
Experiment [2] has as its target neuraminidase-treated human erythrocytes (human). Kind of experiment: erythrocyte rosetting on transfected COS7 cells, erythrocytes pretreated with neuraminidase.

Where only a bound is given, the exact number is not on record here.

The substance “PfRH1 region II (RII) expressed on the surface of COS7 cells as a GFP fusion protein (from UniProt P86148 334-1000)” had a binding activity (%) in experiment [1] greater than 70%. The fold reduction of binding against untreated erythrocytes in experiment [2] was determined as 10 fold.
In the case of “PfRH1 region III (RIII) expressed on the surface of COS7 cells as a GFP fusion protein”, the binding activity (%) in experiment [1] was less than 10%.
The same measure, in the same setting: to “PfRH1 region IV (RIV) expressed on the surface of COS7 cells as a GFP fusion protein” belongs less than 10%; to “PfRH1 region VI (RVI) expressed on the surface of COS7 cells as a GFP fusion protein”, less than 10%.
